Reference: the supplement of paper PMC9732359
± gives the uncertainty stated by the source.

Experiment: protein stability index of a GFP-peptide fusion (yeast GPS) (PSI 1-4); higher = more stable; sorted into four equal gates, so the index is relative within each strain
Summary of the method: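 Each library plasmid carries Cherry plus GFP with a tiled 17-residue yeast protein peptide fused downstream, and the pooled library was carried in yeast. Mid-log cultures in leucine-free medium were sorted into four equal gates by GFP/Cherry ratio. Reads from Illumina sequencing of PCR-amplified plasmids from each gate were assigned to strains by barcodes. Per peptide, the protein stability index was computed as the summed products of gate read frequency and gate number.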

| Sequence | protein stability index (doa10∆) | protein stability index (pdr5∆) | protein stability index (san1∆) | protein stability index (ubr1∆) |
| --- | --- | --- | --- | --- |
| SVQDLGGSATARHKKKV [YML031W/NDC1] | 2.7 ± 0.12 | 1.75 ± 0.069 | 1.57 ± 0.21 | 2.05 ± 0.057 |
| SVSLLNSDIANLRTQVT [SMC1] | 3.04 ± 0.09 | 3.08 ± 0.064 | 3.13 ± 0.096 | 2.56 ± 0.11 |
| SVSLVDEFPSELSDSDR [SIR4] | 2.68 ± 0.071 | 2.57 ± 0.058 | 2.64 ± 0.067 | 2.16 ± 0.057 |
| SVVKKEDNKYAIAGNST [RGR1] | 3.1 ± 0.084 | 2.63 ± 0.072 | 3.02 ± 0.054 | 2.92 ± 0.054 |
| SVVSMSNDVLKPETPKG [SIR2] | 3.01 ± 0.073 | 3.51 ± 0.11 | 3.25 ± 0.062 | 2.96 ± 0.052 |
| SYDKTVKLWEEDPDQEE [YGL100W/SEH1] | 3.32 ± 0.12 | 3.21 ± 0.079 | 3.3 ± 0.044 | 3.29 ± 0.06 |
| SYEKNEDHVEDHRKRKK [LIN1] | 3.25 ± 0.1 | 3.36 ± 0.1 | 3.38 ± 0.084 | 3.21 ± 0.054 |
| SYFLKLLGNCYSLRLIN [SRB8] | 2.81 ± 0.065 | 2.75 ± 0.06 | 2.48 ± 0.061 | 2.96 ± 0.069 |
| SYFYRRIHVNPSYYGVR [BRR2] | 1.5 ± 0.064 | 1.85 ± 0.057 | 1.61 ± 0.07 | 1.76 ± 0.029 |
| SYKDSGLWGFSTATRNV [COR1] | 2.98 ± 0.086 | 3.11 ± 0.094 | 3.19 ± 0.064 | 3.16 ± 0.084 |
| SYKRIYGEYPPTKLLVS [PRE8] | 2.87 ± 0.083 | 3.03 ± 0.085 | 2.75 ± 0.1 | 3.09 ± 0.06 |
| SYQKLLKNYVLNELHPT [PRP8] | 1.62 ± 0.039 | 1.57 ± 0.034 | 1.55 ± 0.057 | 1.75 ± 0.033 |
| SYRGVDLEKLLEMSTED [RPS15] | 2.76 ± 0.14 | 2.86 ± 0.12 | 2.27 ± 0.2 | 3.19 ± 0.083 |
| SYTDAQDKSKKIMNVTT [YMR129W/POM152] | 2.97 ± 0.1 | 2.66 ± 0.11 | 2.88 ± 0.056 | 3.03 ± 0.048 |
| SYYDNDLDETTQTFNGS [YML031W/NDC1] | 2.77 ± 0.043 | 2.78 ± 0.033 | 2.66 ± 0.038 | 2.81 ± 0.033 |
| SYYELETIIFDSELNRA [RRI1] | 2.96 ± 0.11 | 3.13 ± 0.075 | 2.97 ± 0.056 | 2.93 ± 0.056 |
| TAASEARKHKLKTLVQG [RPS27A] | 2.1 ± 0.24 | 2.75 ± 0.22 | – | 3.04 ± 0.18 |
| TAEAPTLSFNFSQKANK [YOR098C/NUP1] | 3.27 ± 0.081 | 3.27 ± 0.086 | 3.24 ± 0.056 | 3.26 ± 0.085 |
| TAEDSWAVISAFFREKG [RPB2] | 3.26 ± 0.12 | 3.02 ± 0.073 | 2.61 ± 0.068 | 2.94 ± 0.063 |
| TAFNKTRGPFHFRAPSR [RPL16B] | 2.95 ± 0.09 | 3.14 ± 0.068 | 2.59 ± 0.066 | 3 ± 0.066 |
| TAGAAANALGGLGVNRR [SSN3] | 3.51 ± 0.11 | 3.04 ± 0.11 | 3.38 ± 0.089 | 3.24 ± 0.1 |
| TAIGIATKEGVVLGVEK [PUP2] | 3.15 ± 0.14 | 3.31 ± 0.11 | 2.79 ± 0.16 | 3.11 ± 0.058 |
| TAILQRQLQYETLGDIL [ECM29] | 2.62 ± 0.086 | 3.31 ± 0.12 | 2.73 ± 0.098 | 3.02 ± 0.097 |
| TANATAELNLPTVDEQR [SNF11] | 3.04 ± 0.035 | 3.14 ± 0.032 | 2.99 ± 0.043 | 3.147 ± 0.026 |
| TANATANVNASAMPAPY [DSN1] | 3.11 ± 0.042 | 3.17 ± 0.037 | 3.083 ± 0.029 | 3.1 ± 0.034 |
| TAPSSQRRVLLSAPLSK [RPL26A] | 2.45 ± 0.045 | 2.31 ± 0.053 | 2.31 ± 0.055 | 2.18 ± 0.036 |
